Reference: article doi:10.1101/797027

Biological target: hRpn10^322–366 peptide with Y326 phosphorylated (human) (UniProt P55036)
Experiment: ITC

Chain of E6AP AZUL domain, E6AP[24–87] (Q05086 24-87): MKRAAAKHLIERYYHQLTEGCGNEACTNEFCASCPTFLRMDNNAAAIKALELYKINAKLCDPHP

- fold reduction of affinity against unphosphorylated hRpn10^322–366: 10 fold
Substance: E6AP AZUL domain, E6AP[24–87] (from UniProt Q05086 24-87) (domain or fragment)
